# Results: paper PMC8501228 (Cell Reports, 2021)
# Target: SARS-CoV-2 Spike S1, 6x His-tagged recombinant protein (16-685 aa, YP_009724390.1) (SARS-CoV-2, UniProt P0DTC2 16-685)
# Assay: ELISA
binder,measurement,value
"galectin-8 (LGALS8) recombinant protein (1-317 aa, AAF19370.1) (natural protein) MMLSLNNLQNIIYNPVIPFVGTIPDQLDPGTLIVIRGHVPSDADRFQVDLQNGSSMKPRADVAFHFNPRFKRAGCIVCNTLINEKWGREEITYDTPFKREKSFEIVIMVLKDKFQVAVNGKHTLLYGHRIGPEKIDTLGIYGKVNIHSIGFSFSSDLQSTQASSLELTEISRENVPKSGTPQLRLPFAARLNTPMGPGRTVVVKGEVNANAKSFNVDLLAGKSKDIALHLNPRLNIKAFVRNSFLQESWGEEERNITSFPFSPGMYFEMIIYCDVREFKVAVNGVHSLEYKHRFKELSSIDTLEINGDIHLLEVRSW",binding result,binds
